Source: US20100158968A1 (published 2010)
Like-named read-outs stand apart in the source and are kept apart here.

B1: YARAAARQARA (peptide)
peptide: YARAAARQARA
B2: KAFAKLAARLYRKALARQLGVAA (peptide)
peptide: KAFAKLAARLYRKALARQLGVAA
B3: KKKALNRQLGVAA (peptide)
peptide: KKKALNRQLGVAA

Experiments:
[1] = target: T1, mitogen-activated protein kinase-activated protein kinase 2 (human MK2) (human, UniProt P49137 46-400); assay: kinase inhibition, radiometric assay
[2] = target: T1, mitogen-activated protein …; assay: kinase inhibition, radiometric assay; remark: listed apart in the source

T1 sequence (P49137 46-400): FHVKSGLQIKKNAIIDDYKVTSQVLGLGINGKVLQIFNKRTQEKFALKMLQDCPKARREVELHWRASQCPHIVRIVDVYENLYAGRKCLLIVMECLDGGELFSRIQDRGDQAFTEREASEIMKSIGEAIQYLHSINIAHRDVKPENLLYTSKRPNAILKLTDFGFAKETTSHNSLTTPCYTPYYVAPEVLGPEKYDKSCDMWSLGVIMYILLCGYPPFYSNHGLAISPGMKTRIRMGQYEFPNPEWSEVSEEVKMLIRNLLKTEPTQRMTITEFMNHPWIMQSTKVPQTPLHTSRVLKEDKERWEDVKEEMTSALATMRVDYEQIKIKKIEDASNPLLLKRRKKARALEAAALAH

Binder	IC50 [1] [µM]	IC50 [2] [µM]
B1	> 1000	–
B2	–	4.43
B3	31.2	–
